Assay results reported in publication PMC9083366, “Brassinosteroid-Insensitive 1-Associated Receptor Kinase 1 Modulates Abscisic Acid Signaling by Inducing PYR1 Monomerization and Association With ABI1 in Arabidopsis” (Frontiers in Plant Science, 2022).
Residue numbers refer to the chain shown, from its start.

T1: GST-ABI1 (Arabidopsis thaliana, UniProt P49597 1-434)
T1 construct: ABI1 (ABA-Insensitive 1), clade A protein phosphatase 2C, Arabidopsis thaliana; also called ABA-Insensitive 1; not shown: GST, N-terminal, kept
T1 sequence (looked up): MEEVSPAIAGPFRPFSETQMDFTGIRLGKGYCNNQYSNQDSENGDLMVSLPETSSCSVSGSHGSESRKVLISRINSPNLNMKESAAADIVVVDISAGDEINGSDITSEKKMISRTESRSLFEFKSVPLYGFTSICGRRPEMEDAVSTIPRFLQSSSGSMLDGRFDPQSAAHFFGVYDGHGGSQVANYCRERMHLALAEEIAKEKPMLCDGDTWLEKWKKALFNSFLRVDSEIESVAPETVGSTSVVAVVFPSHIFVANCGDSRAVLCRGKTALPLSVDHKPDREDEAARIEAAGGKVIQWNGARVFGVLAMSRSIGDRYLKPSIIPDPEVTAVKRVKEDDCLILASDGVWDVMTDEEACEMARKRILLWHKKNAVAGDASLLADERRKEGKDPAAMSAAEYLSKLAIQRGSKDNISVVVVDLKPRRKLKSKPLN

B1: HIS-tagged PYR1 recombinant protein (natural protein, Arabidopsis thaliana, UniProt O49686 1-191, looked up)
chain: MPSELTPEERSELKNSIAEFHTYQLDPGSCSSLHAQRIHAPPELVWSIVRRFDKPQTYKHFIKSCSVEQNFEMRVGCTRDVIVISGLPANTSTERLDILDDERRVTGFSIIGGEHRLTNYKSVTTVHRFEKENRIWTVVLESYVVDMPEGNSEDDTRMFADTVVKLNLQKLATVAEAMARNSGDGSGSQVT
notes: PYR1 (PYRABACTIN …1), Arabidopsis thaliana, 191 amino acids; also called HIS-PYR1; PYRABACTIN …1; not shown: His, N-terminal, kept
B2: HIS-PYR1DD (phosphomimetic PYR1) (natural protein, Arabidopsis thaliana, UniProt O49686 1-191, looked up)
chain: B1 chain with T137D, S142D
notes: PYR1, Arabidopsis thaliana, 191 amino acids, T137 and S142 mutagenized to aspartic acid; not shown: His, N-terminal, kept

Target: T1, GST-ABI1
Test: pull-down; GST-ABI1 incubated with HIS-PYR1 variants in the absence or presence of 30 uM ABA; western blot with anti-GST and anti-HIS
Settings: both partners purified

| Binder | binding result |
| --- | --- |
| B1 | binds |
| B2 | binds |
